Molecular target: T1, WT 4Ig-B7-H3-meGFP (and WT 4Ig-B7-H3-mCherry as the second copy) (human), Q5ZPR3
T1 chain: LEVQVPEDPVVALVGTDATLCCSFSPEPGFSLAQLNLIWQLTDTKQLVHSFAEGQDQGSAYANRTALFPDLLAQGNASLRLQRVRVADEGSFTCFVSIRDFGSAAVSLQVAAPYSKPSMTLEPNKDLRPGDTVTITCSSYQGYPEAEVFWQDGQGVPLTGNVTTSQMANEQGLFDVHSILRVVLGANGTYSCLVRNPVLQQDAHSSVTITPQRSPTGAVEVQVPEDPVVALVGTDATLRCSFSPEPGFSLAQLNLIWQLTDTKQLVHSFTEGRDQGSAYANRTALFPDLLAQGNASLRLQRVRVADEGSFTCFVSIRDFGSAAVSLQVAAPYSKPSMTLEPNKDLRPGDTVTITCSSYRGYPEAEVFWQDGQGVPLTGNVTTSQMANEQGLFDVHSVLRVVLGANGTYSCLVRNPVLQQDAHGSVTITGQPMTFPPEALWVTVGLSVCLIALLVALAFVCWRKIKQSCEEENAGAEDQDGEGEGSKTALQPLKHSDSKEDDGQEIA
Assay: FRET or BRET
Details: remark: other sources report otherwise

abundance of dimeric complexes (1.3 ns lifetime population): 65%
dimeric abundance (with MBCD 0.1 ug, 10 minutes): 26%
dimeric abundance (without MBCD): 48%
dimeric lifetime abundance (with Vector-mCherry): 56%
B1: WT 4Ig-B7-H3-meGFP (and WT 4Ig-B7-H3-mCherry as the second copy), Q5ZPR3 29-534 (natural protein)
chain: T1 chain

From article PMC11702627
